The source of these data is patent US20030129186A1.

In the test the target is p97 receptor (melanotransferrin receptor, MTf-R) on bovine brain capillary endothelial cells (BBCECs) (bovine). Kind of test: cell-based or functional assay.

For the substance “recombinant receptor-associated protein (RAP)”, the decrease in initial rate of [125I]-p97 transport across BBCEC monolayers with recombinant RAP (25 µg/ml) is greater than 50%.
